According to paper PMC3561323 (PLoS ONE, 2013):

Target: integrin linked kinase (ILK), full-length human (human, UniProt Q13418 1-452)
Assay: SEC; purified IPPmin complex on a calibrated gel-filtration column (Superdex 200 10/300 GL); 20 mM Tris pH 7.5, 150 mM NaCl, 1 mM DTT
Settings: both partners purified

Chain of integrin linked kinase (ILK), full-length human (Q13418 whole entry): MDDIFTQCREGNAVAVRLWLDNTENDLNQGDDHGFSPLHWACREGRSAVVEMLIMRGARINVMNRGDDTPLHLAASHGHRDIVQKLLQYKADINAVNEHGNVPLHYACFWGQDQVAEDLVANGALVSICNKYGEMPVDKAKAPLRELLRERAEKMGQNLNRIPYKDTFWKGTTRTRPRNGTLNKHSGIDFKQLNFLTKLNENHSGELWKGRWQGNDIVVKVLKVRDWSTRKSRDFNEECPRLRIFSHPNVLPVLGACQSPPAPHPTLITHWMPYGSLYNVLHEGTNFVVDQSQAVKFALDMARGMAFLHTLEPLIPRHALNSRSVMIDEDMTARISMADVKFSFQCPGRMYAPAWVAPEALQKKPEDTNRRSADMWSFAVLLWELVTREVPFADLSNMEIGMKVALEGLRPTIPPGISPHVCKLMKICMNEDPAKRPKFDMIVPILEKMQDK

- binding result: binds
B1: LIM1 domain of PINCH1 (domain or fragment, human, UniProt P48059 6-68, looked up)
chain: ASATCERCKGGFAPAEKIVNSNGELYHEQCFVCAQCFQQFPEGLFYEFEGRKYCEHDFQMLFA
